Molecular target: p53 (murine wild-type) (mouse, UniProt P02340 1-390)
Assay: EMSA; 1,10-phenanthroline, 20 min at 30 C; PAb 421; at least partially resistant to chelator; EMSA on 4% polyacrylamide gels with PAb 421, reticulocyte lysate p53 pre-exposed to OP 20 min at 30 or 37 C; binding buffer, salt and pH not given (as in Hainaut and Milner 1993b)
Conditions: protein: ivt; chain copies: 4; label: 32P

Sequence of p53 (murine wild-type) (P02340 whole entry): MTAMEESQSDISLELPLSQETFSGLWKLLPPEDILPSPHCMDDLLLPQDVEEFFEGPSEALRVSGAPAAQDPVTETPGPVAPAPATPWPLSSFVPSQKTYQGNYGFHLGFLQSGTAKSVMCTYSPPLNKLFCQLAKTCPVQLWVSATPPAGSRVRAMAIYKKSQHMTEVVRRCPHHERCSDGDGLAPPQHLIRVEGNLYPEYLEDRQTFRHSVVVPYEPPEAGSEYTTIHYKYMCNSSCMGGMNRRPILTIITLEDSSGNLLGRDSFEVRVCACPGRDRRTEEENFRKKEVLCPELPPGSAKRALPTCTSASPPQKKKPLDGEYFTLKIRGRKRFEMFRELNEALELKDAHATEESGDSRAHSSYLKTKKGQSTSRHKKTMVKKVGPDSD

B1: p53 CON (dsDNA)
DNA 1: GGGCATGTCCGGGCATGTCC
DNA 2: GGACATGCCCGGACATGCCC
B1: binds.
